Values joined by “and” are separate entries in the source; they are usually repeats but may differ in a detail not shown here. Equal values may be shown once.
Key:
[1] = molecular target: T1, human folate receptor alpha (hFRα), recombinant protein (human, UniProt P15328 25-233); assay: BLI, Avi-biotinylated FRα
T1 construct: Bought recombinant proteins (His-tagged, or biotinylated via Avi-tag, e.g. AcroBiosystems FO1-H82E2, F01-H52H1); also called hFOLR1; huFOLR1
Description: (§1) Purified VHHs ^{∘}100 nM) were analysed for binding to avi-tagged biotinylated FRα protein captured on streptavidin-biosensors via BLI.
(§2) Off-rates of purified variants were determined to human, mouse, and cynomolgus FRα in BLI. In addition, binding of the affinity optimised variants to cell-expressed human FRα on HeLa cells was determined by flow cytometry ^{∘}FIG. 10 B).

[2] = molecular target: T2, mouse folate receptor alpha (mFRα), recombinant protein (mouse, UniProt P35846 25-232); assay: BLI, Avi-biotinylated FRα
T2 construct: Bought recombinant proteins (e.g. biotinylated, Acro Biosystems FO1-M82E9); also called mFOLR1; Ms FOLR1
T2 sequence (P35846 25-232 limits assumed): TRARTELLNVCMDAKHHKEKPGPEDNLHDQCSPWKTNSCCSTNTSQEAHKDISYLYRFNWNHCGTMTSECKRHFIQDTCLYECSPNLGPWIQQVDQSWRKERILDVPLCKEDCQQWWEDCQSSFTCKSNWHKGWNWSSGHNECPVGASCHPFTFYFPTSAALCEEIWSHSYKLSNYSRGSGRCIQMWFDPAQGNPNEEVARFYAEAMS
Description: as §1, §2

[3] = molecular target: T1, human folate receptor alpha (hFRα), …; assay: BLI, purified VHH
How it was run: (§3)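 Off-rates to folate receptor alpha from human, mouse and cynomolgus were measured by biolayer interferometry. The VHH proteins tested were made with a flag3-His6 tag in TG-1 E. coli at 0.5 L scale and isolated from the periplasm on Ni Sepharose FastFlow columns.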

[4] = molecular target: T2, mouse folate receptor alpha (mFRα), …; assay: BLI, purified VHH
How it was run: as §3

[5] = molecular target: T3, cynomolgus folate receptor alpha, recombinant (cynomolgus, UniProt A0A2K5U044 25-233); assay: BLI, purified VHH
T3 construct: also called cyFOLR1; cynomolgus FRα
T3 sequence (A0A2K5U044 entry or part of it): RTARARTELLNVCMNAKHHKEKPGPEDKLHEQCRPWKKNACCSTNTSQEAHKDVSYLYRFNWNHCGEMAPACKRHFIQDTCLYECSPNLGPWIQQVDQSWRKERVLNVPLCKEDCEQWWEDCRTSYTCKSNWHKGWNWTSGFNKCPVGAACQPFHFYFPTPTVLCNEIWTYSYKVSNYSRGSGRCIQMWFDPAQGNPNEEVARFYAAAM
How it was run: as §3

[6] = molecular target: T4, human folate receptor alpha expressed on cells (transfected HEK293T, HeLa, MCF7, MDA-MB-231) (human, UniProt P15328 25-234); assay: flow cytometry on HeLa cells, anti-Flag detection
T4 construct: HEK293T transiently transfected with human FOLR1; also called native human FRα; cell-expressed human FOLR1
T4 sequence (P15328 25-234 limits assumed): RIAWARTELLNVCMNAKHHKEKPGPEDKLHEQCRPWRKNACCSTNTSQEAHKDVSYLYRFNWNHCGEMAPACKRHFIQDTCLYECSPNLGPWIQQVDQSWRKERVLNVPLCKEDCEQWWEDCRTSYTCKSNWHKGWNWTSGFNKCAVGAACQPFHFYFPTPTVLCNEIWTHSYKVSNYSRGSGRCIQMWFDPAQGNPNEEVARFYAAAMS
Description: EC₅₀ values are found in Table 9. Detection of VHH cell binding was done through anti-Flag M2 mIgG1 followed by anti-mFc-PE in flow cytometry. Results are depicted as mean fluorescence intensity ^{∘}MFI).
as §2

[7] = molecular target: T2, mouse folate receptor alpha (mFRα), …; assay: BLI
How it was run: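 Fold change compares each variant with its wild-type VHH, as the negative of variant koff over wild-type koff for a worse off-rate, or wild-type koff over variant koff for a better one. Off-rates came from biolayer interferometry against biotinylated human and mouse folate receptor alpha on streptavidin biosensors. Calculation of koff relied on a 1:1 binding model.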

T1 sequence (P15328 25-233 limits assumed): as the sequence (A0A2K5U044 entry or part of it) above, with T2I, R4W, K37R, P146A, Y171H counted along it

Row | Binder | koff [1] | koff [2] | koff [3] [s⁻¹] | koff [4] [s⁻¹] | koff [5] [s⁻¹] | EC50 [6] [nM] | MFI top [6] [MFI] | koff [7] [s⁻¹] | nm (Fold wt) [7]
1 | P01500019: 2HF09(Q1E, Q5V, A14P, G26E, G28P, I51V, G54H, D72E, N73G, L79Y, K83R, Q108L)-HIS6 (VHH, Entry includes the tag; also called P0150019; P01500001[G26E, G28P, D72E, N73G]) VHH: EVQLVESGGGLVQPGGSLRLSCAASESPFSGMIMGWYRQAPGKQRELVATVTSHGTTNYADSVKGRFTISREGAKNTVYLQMNSLRPEDTAVYYCNAHFPGIYWGKGTLVTVSS | 0.000206 s⁻¹ | 8.33e-05 s⁻¹ | – | – | – | – | – | – | –
2 | P01500054: P01500001(I33L, N73P)-FLAG3-HIS6 (VHH, also called P0150054) VHH: EVQLVESGGGLVQPGGSLRLSCAASGSGFSGMLMGWYRQAPGKQRELVATVTSHGTTNYADSVKGRFTISRDPAKNTVYLQMNSLRPEDTAVYYCNAHFPGIYWGKGTLVTVSS | 0.000937 s⁻¹ | 0.000147 s⁻¹ | 0.000968 | 0.000147 | 0.000147 | 5.18 | 55800 | – | –
3 | P01500050: P01500001(G28T, D72P)-FLAG3-HIS6 (VHH, also called P0150050) VHH: EVQLVESGGGLVQPGGSLRLSCAASGSTFSGMIMGWYRQAPGKQRELVATVTSHGTTNYADSVKGRFTISRPNAKNTVYLQMNSLRPEDTAVYYCNAHFPGIYWGKGTLVTVSS | 0.00128 s⁻¹ | 0.000168 s⁻¹ | 0.00105 | 0.000168 | 0.00109 | 3.61 | 62500 | – | –
4 | P01500047: P01500001(G26E, G28T, S30I, I33L)-FLAG3-HIS6 (VHH, also called P0150047) VHH: EVQLVESGGGLVQPGGSLRLSCAASESTFIGMLMGWYRQAPGKQRELVATVTSHGTTNYADSVKGRFTISRDNAKNTVYLQMNSLRPEDTAVYYCNAHFPGIYWGKGTLVTVSS | 0.00119 s⁻¹ | 0.000219 s⁻¹ | 0.000971 | 0.000219 | 0.000219 | 3.19 | 59100 | – | –
5 | P01500046: P01500001(N73P)-FLAG3-HIS6 (VHH, also called P0150046) VHH: EVQLVESGGGLVQPGGSLRLSCAASGSGFSGMIMGWYRQAPGKQRELVATVTSHGTTNYADSVKGRFTISRDPAKNTVYLQMNSLRPEDTAVYYCNAHFPGIYWGKGTLVTVSS | 0.00371 s⁻¹ and 0.004 s⁻¹ | 0.000777 s⁻¹ and 0.000731 s⁻¹ | 0.00361 | 0.000754 | 0.0036 | 6.91 | 50800 | – | –
6 | P01500052: P01500001(V51R, D72E)-FLAG3-HIS6 (VHH, also called P0150052) VHH: EVQLVESGGGLVQPGGSLRLSCAASGSGFSGMIMGWYRQAPGKQRELVATRTSHGTTNYADSVKGRFTISRENAKNTVYLQMNSLRPEDTAVYYCNAHFPGIYWGKGTLVTVSS | 0.0018 s⁻¹ | 0.000246 s⁻¹ | 0.00146 | 0.000246 | 0.00281 | 4.35 | 53900 | – | –
7 | P01500042: P01500001(G28T, S30I)-FLAG3-HIS6 (VHH, also called P0150042) VHH: EVQLVESGGGLVQPGGSLRLSCAASGSTFIGMIMGWYRQAPGKQRELVATVTSHGTTNYADSVKGRFTISRDNAKNTVYLQMNSLRPEDTAVYYCNAHFPGIYWGKGTLVTVSS | 0.00338 s⁻¹ | 0.00038 s⁻¹ | 0.00274 | 0.00038 | 0.00038 | 5.19 | 54700 | – | –
8 | P01500082: P0150001 with A24V, S27L, M32I (VHH) VHH: EVQLVESGGGLVQPGGSLRLSCAVSGLGFSGIIMGWYRQAPGKQRELVATVTSHGTTNYADSVKGRFTISRDNAKNTVYLQMNSLRPEDTAVYYCNAHFPGIYWGKGTLVTVSS | – | – | – | – | – | – | – | 0.0618 | 38
9 | P01500051: P01500001(D72E, N73G)-FLAG3-HIS6 (VHH, also called P0150051) VHH: EVQLVESGGGLVQPGGSLRLSCAASGSGFSGMIMGWYRQAPGKQRELVATVTSHGTTNYADSVKGRFTISREGAKNTVYLQMNSLRPEDTAVYYCNAHFPGIYWGKGTLVTVSS | 0.000474 s⁻¹ and 0.000555 s⁻¹ | 4.99e-05 s⁻¹ and 8.33e-05 s⁻¹ | 0.000546 | 8.41e-05 | 0.00078 | 3.31 | 61000 | – | –
10 | P01500048: P01500001(S30I, D72P)-FLAG3-HIS6 (VHH, also called P0150048) VHH: EVQLVESGGGLVQPGGSLRLSCAASGSGFIGMIMGWYRQAPGKQRELVATVTSHGTTNYADSVKGRFTISRPNAKNTVYLQMNSLRPEDTAVYYCNAHFPGIYWGKGTLVTVSS | 0.00147 s⁻¹ | 0.000142 s⁻¹ | 0.0013 | 0.000142 | 0.00133 | 2.46 | 59800 | – | –
11 | P01500045: P01500001(G26E, I33L)-FLAG3-HIS6 (VHH, also called P0150045) VHH: EVQLVESGGGLVQPGGSLRLSCAASESGFSGMLMGWYRQAPGKQRELVATVTSHGTTNYADSVKGRFTISRDNAKNTVYLQMNSLRPEDTAVYYCNAHFPGIYWGKGTLVTVSS | 0.00187 s⁻¹ | 0.00036 s⁻¹ | 0.00157 | 0.00036 | 0.00036 | 4.71 | 58900 | – | –
12 | P01500059: P01500001(G26E, D72E)-FLAG3-HIS6 (VHH, also called P0150059) VHH: EVQLVESGGGLVQPGGSLRLSCAASESGFSGMIMGWYRQAPGKQRELVATVTSHGTTNYADSVKGRFTISRENAKNTVYLQMNSLRPEDTAVYYCNAHFPGIYWGKGTLVTVSS | 0.0019 s⁻¹ | 0.000292 s⁻¹ | 0.00204 | 0.000333 | 0.000292 | – | – | – | –
13 | P01500043: P01500001(G28T, I33L, D72E)-FLAG3-HIS6 (VHH, also called P0150043) VHH: EVQLVESGGGLVQPGGSLRLSCAASGSTFSGMLMGWYRQAPGKQRELVATVTSHGTTNYADSVKGRFTISRENAKNTVYLQMNSLRPEDTAVYYCNAHFPGIYWGKGTLVTVSS | 0.000639 s⁻¹ | 0.000114 s⁻¹ | 0.000534 | 0.000114 | 0.000428 | 2.4 | 60200 | – | –
14 | P01500044: P01500001(S30I, D72E, N73G)-FLAG3-HIS6 (VHH, also called P0150044) VHH: EVQLVESGGGLVQPGGSLRLSCAASGSGFIGMIMGWYRQAPGKQRELVATVTSHGTTNYADSVKGRFTISREGAKNTVYLQMNSLRPEDTAVYYCNAHFPGIYWGKGTLVTVSS | 0.000555 s⁻¹ | 0.000126 s⁻¹ | 0.000464 | 0.000126 | 0.000737 | 3.29 | 64100 | – | –
15 | P01500055: P01500001(V51R, D72E, N73G)-FLAG3-HIS6 (VHH, also called P0150055) VHH: EVQLVESGGGLVQPGGSLRLSCAASGSGFSGMIMGWYRQAPGKQRELVATRTSHGTTNYADSVKGRFTISREGAKNTVYLQMNSLRPEDTAVYYCNAHFPGIYWGKGTLVTVSS | 0.000382 s⁻¹ | 2.4e-05 s⁻¹ | 0.000382 | 2.4e-05 | 4.24e-05 | 3.77 | 59000 | – | –
16 | P01500041: P01500001(D72P, N73G)-FLAG3-HIS6 (VHH, also called P0150041) VHH: EVQLVESGGGLVQPGGSLRLSCAASGSGFSGMIMGWYRQAPGKQRELVATVTSHGTTNYADSVKGRFTISRPGAKNTVYLQMNSLRPEDTAVYYCNAHFPGIYWGKGTLVTVSS | 0.00113 s⁻¹ | 0.000191 s⁻¹ | 0.00094 | 0.00014 | 0.00014 | 4.2 | 63000 | – | –
17 | P01500083: P0150001 with A24V, S27L, M32I, N76D (VHH) VHH: EVQLVESGGGLVQPGGSLRLSCAVSGLGFSGIIMGWYRQAPGKQRELVATVTSHGTTNYADSVKGRFTISRDNAKDTVYLQMNSLRPEDTAVYYCNAHFPGIYWGKGTLVTVSS | – | – | – | – | – | – | – | 0.0975 | 60
18 | P01500053: P01500001(S30I, I33L, N73P)-FLAG3-HIS6 (VHH, also called P0150053) VHH: EVQLVESGGGLVQPGGSLRLSCAASGSGFIGMLMGWYRQAPGKQRELVATVTSHGTTNYADSVKGRFTISRDPAKNTVYLQMNSLRPEDTAVYYCNAHFPGIYWGKGTLVTVSS | 0.000922 s⁻¹ and 0.00105 s⁻¹ | 0.000167 s⁻¹ and 0.000214 s⁻¹ | 0.000943 | 0.000191 | 0.000167 | 2.63 | 51200 | – | –
19 | P01500049: P01500001(G26E)-FLAG3-HIS6 (VHH, also called P0150049) VHH: EVQLVESGGGLVQPGGSLRLSCAASESGFSGMIMGWYRQAPGKQRELVATVTSHGTTNYADSVKGRFTISRDNAKNTVYLQMNSLRPEDTAVYYCNAHFPGIYWGKGTLVTVSS | 0.00648 s⁻¹ | 0.000826 s⁻¹ | 0.00569 | 0.00105 | 0.000393 | 10.9 | 46600 | – | –
20 | P01500058: P01500001(G26E, G28P)-FLAG3-HIS6 (VHH, also called P0150058) VHH: EVQLVESGGGLVQPGGSLRLSCAASESPFSGMIMGWYRQAPGKQRELVATVTSHGTTNYADSVKGRFTISRDNAKNTVYLQMNSLRPEDTAVYYCNAHFPGIYWGKGTLVTVSS | 0.00285 s⁻¹ | 0.000484 s⁻¹ | 0.00318 | 0.000484 | 0.00369 | – | – | – | –

Source: patent publication US20250304677A1 (VIB VZW, published 2025)
